The test concerns the target TrkB/P75NTR complex (Mus musculus, UniProt P15209). Put plainly: dose-response of neuronal survival in ventral midbrain cultures.

TrkB/P75NTR complex, sequence (P15209 32-821, chain 1 of 2): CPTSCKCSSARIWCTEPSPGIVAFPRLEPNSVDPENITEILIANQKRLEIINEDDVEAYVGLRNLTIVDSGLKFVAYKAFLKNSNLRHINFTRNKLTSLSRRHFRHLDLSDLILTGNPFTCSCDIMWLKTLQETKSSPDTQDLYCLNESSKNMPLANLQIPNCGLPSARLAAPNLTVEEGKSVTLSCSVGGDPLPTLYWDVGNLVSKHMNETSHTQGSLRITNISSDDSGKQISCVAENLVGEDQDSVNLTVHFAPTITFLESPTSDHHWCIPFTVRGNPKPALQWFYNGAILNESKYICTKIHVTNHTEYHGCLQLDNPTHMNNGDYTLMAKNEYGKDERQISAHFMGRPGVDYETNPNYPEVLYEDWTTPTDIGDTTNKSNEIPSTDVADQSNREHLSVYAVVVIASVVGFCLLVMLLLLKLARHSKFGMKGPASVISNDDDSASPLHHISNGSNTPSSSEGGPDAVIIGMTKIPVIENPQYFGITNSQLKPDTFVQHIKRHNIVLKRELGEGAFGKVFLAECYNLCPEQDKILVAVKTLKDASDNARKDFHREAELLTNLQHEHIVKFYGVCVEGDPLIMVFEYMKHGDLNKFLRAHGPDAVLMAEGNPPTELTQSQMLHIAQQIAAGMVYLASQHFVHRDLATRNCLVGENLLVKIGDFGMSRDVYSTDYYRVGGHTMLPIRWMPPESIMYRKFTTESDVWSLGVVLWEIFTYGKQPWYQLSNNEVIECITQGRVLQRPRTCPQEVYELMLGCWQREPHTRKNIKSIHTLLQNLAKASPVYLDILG
TrkB/P75NTR complex, sequence (chain, as listed by the source, chain 2 of 2): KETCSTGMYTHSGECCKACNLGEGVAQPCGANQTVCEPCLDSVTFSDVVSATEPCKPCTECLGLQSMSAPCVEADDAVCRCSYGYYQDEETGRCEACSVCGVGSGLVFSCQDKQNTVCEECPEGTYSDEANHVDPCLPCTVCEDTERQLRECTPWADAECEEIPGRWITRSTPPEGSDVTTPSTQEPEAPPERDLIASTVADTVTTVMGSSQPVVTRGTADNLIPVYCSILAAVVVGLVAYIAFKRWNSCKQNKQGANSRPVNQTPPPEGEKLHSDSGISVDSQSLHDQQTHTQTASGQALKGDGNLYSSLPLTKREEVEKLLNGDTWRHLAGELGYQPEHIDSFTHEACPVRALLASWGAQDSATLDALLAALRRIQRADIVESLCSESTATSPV

B1: BDNF (protein)
chain: HSDPARRGELSVCDSISEWVTAADKKTAVDMSGGTVTVLEKVPVSKGQLKQYFYETKCNPMGYTKEGCRGIDKRHWNSQCRTTQSYVRALTMDSKKRIGWRFIRIDTSCVCTLTIKRGR
The molecule B1 displayed a dissociation constant (Kd) of roughly 2.5 nM.

The values above are taken from PMC2667502 (2009).
